Data reported in article PMC3206593 (Bioorganic & medicinal chemistry, 2011).
Positions of bridges follow the written chain, without caps; N, C: chain ends. No end group written: not given here.

T1: Aurora A (Homo sapiens, UniProt O14965)
T1 sequence (O14965 1-403): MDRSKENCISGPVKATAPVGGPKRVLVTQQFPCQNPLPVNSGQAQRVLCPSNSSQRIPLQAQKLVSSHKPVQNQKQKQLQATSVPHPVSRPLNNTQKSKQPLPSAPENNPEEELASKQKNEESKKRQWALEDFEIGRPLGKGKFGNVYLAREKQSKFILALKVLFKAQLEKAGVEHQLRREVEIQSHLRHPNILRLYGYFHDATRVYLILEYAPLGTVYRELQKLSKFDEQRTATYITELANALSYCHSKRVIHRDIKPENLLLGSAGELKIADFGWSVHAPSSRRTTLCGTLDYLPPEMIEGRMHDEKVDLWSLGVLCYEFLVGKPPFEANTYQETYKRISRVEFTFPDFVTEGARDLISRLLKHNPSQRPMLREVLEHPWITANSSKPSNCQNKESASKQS

T2: (CTRPWWLC)G cyclic peptide (disulfide 1-8 (inferred))
T2 chain: CTRPWWLCG-NH2

B1: Aurora kinase A (protein)
chain: T1 sequence (O14965 1-403)

Key:
Aurora A = molecular target: T1, Aurora A; conditions: at a concentration of 100 μM; peptide appended to the helices; cited from earlier work
[1] = molecular target: T2, (CTRPWWLC)G cyclic peptide; experiment: radiometric kinase kinetic assay

Molecule	inhibition of Aurora A (Aurora A) [%]	Ki [1] [µM]
GRRVVVSFAWD	35	
B1		31
